Experimental data from US20240417484A1, “ANTIGEN-BINDING POLYPEPTIDES AGAINST CD73” (UNIVERSITÄTSKLINIKUM HAMBURG-EPPENDORF, priority 2021, published 2024).

T1: soluble human CD73 (Homo sapiens, UniProt P21589)
T1 construct: The ectodomain of CD73 (aa 27-549) was expressed as a recombinant protein with a C-terminal His6× tag; His6 (C); made in house; host or cells: transiently transfected HEK cells
T1 sequence (P21589 27-549): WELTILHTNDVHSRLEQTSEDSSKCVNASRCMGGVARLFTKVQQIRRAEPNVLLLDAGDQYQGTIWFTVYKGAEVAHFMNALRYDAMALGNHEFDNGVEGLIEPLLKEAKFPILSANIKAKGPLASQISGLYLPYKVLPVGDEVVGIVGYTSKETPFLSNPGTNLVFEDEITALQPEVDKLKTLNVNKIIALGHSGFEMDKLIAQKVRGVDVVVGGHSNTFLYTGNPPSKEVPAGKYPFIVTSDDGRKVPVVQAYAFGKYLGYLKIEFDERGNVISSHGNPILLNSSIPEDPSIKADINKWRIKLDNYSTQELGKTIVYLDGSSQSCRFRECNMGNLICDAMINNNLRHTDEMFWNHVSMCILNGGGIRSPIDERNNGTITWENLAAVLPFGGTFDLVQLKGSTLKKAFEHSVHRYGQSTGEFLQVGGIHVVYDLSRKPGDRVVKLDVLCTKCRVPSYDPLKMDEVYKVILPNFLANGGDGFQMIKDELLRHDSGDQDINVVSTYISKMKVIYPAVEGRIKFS

T2: recombinant human CD73 ectodomain (aa 27-549) with C-terminal His6x tag (human, UniProt P21589 27-549)
T2 construct: also called soluble recombinant human CD73; soluble human CD73
T2 sequence: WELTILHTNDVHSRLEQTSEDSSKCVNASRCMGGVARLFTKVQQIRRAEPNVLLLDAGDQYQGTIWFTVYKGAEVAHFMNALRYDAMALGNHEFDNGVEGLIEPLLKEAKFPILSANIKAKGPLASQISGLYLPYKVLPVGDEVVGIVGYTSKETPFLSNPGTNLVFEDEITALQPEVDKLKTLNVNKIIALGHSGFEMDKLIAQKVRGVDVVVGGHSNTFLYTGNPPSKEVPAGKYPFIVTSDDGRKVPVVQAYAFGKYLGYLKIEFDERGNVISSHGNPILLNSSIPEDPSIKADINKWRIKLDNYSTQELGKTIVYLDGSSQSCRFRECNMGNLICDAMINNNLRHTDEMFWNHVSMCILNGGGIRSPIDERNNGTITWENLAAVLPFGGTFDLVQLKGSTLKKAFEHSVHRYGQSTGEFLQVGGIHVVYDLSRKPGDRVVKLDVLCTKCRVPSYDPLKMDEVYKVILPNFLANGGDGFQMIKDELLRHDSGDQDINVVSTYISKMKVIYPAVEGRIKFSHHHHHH

B1: SB108: CD73-specific alpaca VHH clone, family 1, SEQ ID NO:67; tested as rabbit IgG hcAb (antibody)
heavy: QVKLQESGGGLVHSGGSLRLSCAVSGFALDYYTIGWFRQAPGKEREGVSCISSSGSSTNYADSMKGRLTISRDNAKNTVYLQMNSLKPEDTAVYYCAAQRYYYCSDKVAVYDYWGQGTQVTVSS
modifications: left off: a dimerising Fc or GST
notes: tested as rabbit IgG hcAb
B2: SB125: CD73-specific alpaca VHH clone, family 1, SEQ ID NO:68; tested as rabbit IgG hcAb (antibody)
heavy: QVQLQESGGGLVQPGGSLRLSCAVSGFALDYYTIGWFRQAPGKEREGVSCISSSGGSTNYADSVKGRLTISRDNAKNTVYLQMNSLKPEDTAVYYCAAQRYYYCSDKVEVYDYWGQGTQVTVSS
modifications: left off: a dimerising Fc or GST
notes: tested as rabbit IgG hcAb
B3: SB98: CD73-specific alpaca VHH clone, family 1, SEQ ID NO:62; tested as rabbit IgG hcAb (antibody)
heavy: QVKLQESGGGLVQPGGSLRLSCAASGFTLDYYTIGWFRQAPGKEREGVSCISSSGGITNYADSVKGRLTISRDNAKNTVYLQMNSLKPEDTAVYYCAAQKYYYCSGKAEVYDYWGQGTQVTVSS
modifications: left off: a dimerising Fc or GST
notes: tested as rabbit IgG hcAb
B4: SB123: CD73-specific alpaca VHH clone, family 1, SEQ ID NO:64; tested as rabbit IgG hcAb (antibody)
heavy: DVQLQESGGGLVQPGGSLTLSCAASGFTLDYLSIGWFRQVPGKEREGVSCINSSGGSTNYADSVKGRLTISRDNAKNTVYLQINSLKPEDTAVYYCAAHKYYYCSNKVAVFDYWGQGTQVTVSS
modifications: left off: a dimerising Fc or GST
notes: tested as rabbit IgG hcAb
B5: SB115: CD73-specific alpaca VHH clone, family 1, SEQ ID NO:63; tested as rabbit IgG hcAb (antibody)
heavy: DVQLQASGGGLVQPGGSLRLSCVVSGFTLDYYTIGWFRQAPGKEREGVSCINSSGGVTNYADSVKGRFTISRDNAKNTVYLQMNSLKSEDTAVYYCAAQKYYYCSRKGEVYDSWGQGTQVTVSS
modifications: left off: a dimerising Fc or GST
notes: tested as rabbit IgG hcAb
B6: SB124: CD73-specific alpaca VHH clone, family 1, SEQ ID NO:65; tested as rabbit IgG hcAb (antibody)
heavy: QVQLQESGGGLVQPGGSLRLSCAASGFTLDYYTIGWFRQAPGKEREGVSCVSSSGDRTDYLESVKGRLTISRDNAKNTVYLQMNSLKPEDTGVYYCAAQKYYYCSGKVEVYDYWGQGTQVTVSS
modifications: left off: a dimerising Fc or GST
notes: tested as rabbit IgG hcAb
B7: SB107: CD73-specific alpaca VHH clone, family 1, SEQ ID NO:66; tested as rabbit IgG hcAb (antibody)
heavy: QVQLQESGGGLVQPGGSLRLSCAASGFTLDYLTIGWFRQAPGKEREGVSCINSNGGSTIYADSVKGRLTISRDNAKNTVYLQINSLKPDDTAVYFCAAQKYYYCSGRVEVYDYWGQGIQVTVSS
modifications: left off: a dimerising Fc or GST
notes: tested as rabbit IgG hcAb
B8: SB125 rabbit IgG hcAb (Fc fusion)
heavy: QVQLQESGGGLVQPGGSLRLSCAVSGFALDYYTIGWFRQAPGKEREGVSCISSSGGSTNYADSVKGRLTISRDNAKNTVYLQMNSLKPEDTAVYYCAAQRYYYCSDKVEVYDYWGQGTQVTVSS
notes: not shown: hinge and Fc-domains of rabbit IgG
B9: SB124 rabbit IgG hcAb (Fc fusion)
heavy: QVQLQESGGGLVQPGGSLRLSCAASGFTLDYYTIGWFRQAPGKEREGVSCVSSSGDRTDYLESVKGRLTISRDNAKNTVYLQMNSLKPEDTGVYYCAAQKYYYCSGKVEVYDYWGQGTQVTVSS
notes: as for B8
B10: SB98 rabbit IgG hcAb (Fc fusion)
heavy: QVKLQESGGGLVQPGGSLRLSCAASGFTLDYYTIGWFRQAPGKEREGVSCISSSGGITNYADSVKGRLTISRDNAKNTVYLQMNSLKPEDTAVYYCAAQKYYYCSGKAEVYDYWGQGTQVTVSS
notes: as for B8
B11: SB115 rabbit IgG hcAb (Fc fusion)
heavy: DVQLQASGGGLVQPGGSLRLSCVVSGFTLDYYTIGWFRQAPGKEREGVSCINSSGGVTNYADSVKGRFTISRDNAKNTVYLQMNSLKSEDTAVYYCAAQKYYYCSRKGEVYDSWGQGTQVTVSS
notes: as for B8
B12: SB108 rabbit IgG hcAb (Fc fusion)
heavy: QVKLQESGGGLVHSGGSLRLSCAVSGFALDYYTIGWFRQAPGKEREGVSCISSSGSSTNYADSMKGRLTISRDNAKNTVYLQMNSLKPEDTAVYYCAAQRYYYCSDKVAVYDYWGQGTQVTVSS
notes: as for B8
B13: SB123 rabbit IgG hcAb (Fc fusion)
heavy: DVQLQESGGGLVQPGGSLTLSCAASGFTLDYLSIGWFRQVPGKEREGVSCINSSGGSTNYADSVKGRLTISRDNAKNTVYLQINSLKPEDTAVYYCAAHKYYYCSNKVAVFDYWGQGTQVTVSS
notes: as for B8
B14: SB142 rabbit IgG hcAb (Fc fusion)
heavy: QVQLVESGGGLVQPGGSLRLSCAASGFTFINYHMSWLRQAPGKGLEWVSEIHSRGDITSYTNSVKGRFTISRDNAKNTLYLQMNSLKFDDTAVYYCARSRDLFGEGEYDYWGRGTQVTVSS
notes: as for B8

These molecules were tested against T1, soluble human CD73 (assay: Off-rates of soluble CD73 from immobilized Nb-rbIgG hcAb on Octet BLI). Settings: soluble human CD73 ectodomain 200 ng/μl as analyte; Nb-rbIgG hcAb immobilized on protein A biosensor.
Format: binding
Protocol: (§1) The binding off-rate constants of bivalent hcAbs to human and mouse CD73 protein were determined by […] kinetic analysis on Octet RED96 (ForteBio). Immobilization of rabbit IgG hcAbs on the protein A-biosensor surface was done in HEK-6E cell supernatant, and regeneration of analytes was done with 100 mM Glycin pH=2.5. Recombinant mouse or human CD73 ectodomain was used as analytes and tested at a saturating dose of 200 ng/μl. Sensorgrams were fitted using least square regression in association than dissociation Model in Prism8 (Graphpad).

Compared with B1, B2 is 6-fold higher in Kdis: 9.7e-05 s⁻¹ for the first, 0.00058 s⁻¹ for the second.

First: B3
Second: B4
The Kdis of the first is 42-fold higher: 0.0018 s⁻¹ for the first, 4.3e-05 s⁻¹ for the second.

Going from B5 to B6, the Kdis rises from 0.00035 s⁻¹ to 0.0011 s⁻¹ (3.1-fold).

The molecules below were run against T1, soluble human CD73 (assay: AMP hydrolysis by soluble CD73, DPEA-Napht-Azide fluorescence assay). Settings: 50 ng CD73, 30 min pre-incubation with 10 μl hcAb supernatant, 1 mM AMP.
Format: biochemical
Protocol: Recombinant human CD73 (50 ng) was pre-incubated for 30 min with hcAbs at RT in 96 well plates before addition of AMP and DPEA-Napht-Azide. Fluorescence signals were detected every 50 seconds for 30 repeats. ARFU values (>10^3/min) were calculated for a 10 min interval during the linear phase (from 5 min to 15 min) using Prism software (Graphpad). A non-specific rabbit IgG hcAb was used as control.
• 4.1 CD73 catalyzes the hydrolysis of AMP to adenosine. This reaction can be monitored by the shift in fluorescence intensity of DPEA-Napht-Azide. This property was used to determine whether hcAbs could interfere with the enzymatic activity of CD73. Soluble recombinant human CD73 (50 ng) was pre-incubated for 30 min with Nbs or hcAbs (10 μl HEK-6E cell supernatant containing 10-100 μg/ml hcAb) at RT in 96 well plates before addition of AMP (Sigma) to a final concentration of 1 mM and of DPEA-Napht-Azide to a final concentration of 50 μM. • 4.2 Fluorescence signals were recorded in white Nunc MicroWell plates (Nunc, 136101) on a Victor III plate reader (Perkin Elmer) (Exicitation filter: F485, Emission Filter: F535; CW-Lamp energy: 40000, counting time: 0.1 s). Data analyses were performed using Prism (Graphpad).
Soluble recombinant human CD73 (50 ng) was pre-incubated for 30 min with CD73-specific hcAbs or an irrelevant control hcAb (10 μl HEK-6E cell supernatant) at RT in 96 well plates before addition of AMP (Sigma) to a final concentration of 1 mM and of DPEA-Napht-Azide to a final concentration of 50 μM. Fluorescence signals were detected every 50 seconds for 30 repeats. Data analyses were performed using Prism (Graphpad).

For B7, the “effect on hydrolysis of AMP by soluble CD73” value (shortened to “effect on hydrolysis of AMP”) was “inhibited CD73 catalyzed hydrolysis of AMP”.
For B1, the “effect on hydrolysis of AMP” value was “inhibited CD73 catalyzed hydrolysis of AMP”.
For B5, the “effect on hydrolysis of AMP” value was “inhibited CD73 catalyzed hydrolysis of AMP”.

Each molecule was assayed against T2, recombinant human CD73 ectodomain (aa …) (assay: BLI (Octet), immobilized Nb-rbIgG hcAb, soluble human CD73 as analyte). Settings: not given.
Protocol: as §1

Going from B8 to B9, the koff rises from 0.00058 s⁻¹ to 0.0011 s⁻¹ (1.9-fold).

Compared with B10, B11 is 5.1-fold lower in koff: 0.0018 s⁻¹ for the first, 0.00035 s⁻¹ for the second.

Going from B12 to B13, the koff falls from 9.7e-05 s⁻¹ to 4.3e-05 s⁻¹ (2.3-fold).

B14 gave a koff of 0.00036 s⁻¹.
